Experimental data taken from patent publication US20220213181A1 (Novartis, published 2022).

Assays:
Assay in all cases: linear peptide array on glass (JPT)
P25 = target: T1, P25 (human)
T1 construct: linear 15-mer from the N-terminal coiled coil domain of human ANGPTL4
T1 peptide: DPEVLHSLQTQLKAQ
Protocol: (§1) The ability of selected antibodies of invention, namely NEG276 and NEG318, to bind to linear 15-amino-acid peptides derived from the N-terminal coiled coil domain of human ANGPTL4 was tested. The peptides were immobilized on a glass surface, and the ability of NEG276 and NEG318 to bind to the immobilized peptides was evaluated using experimental methods optimized for linear peptide epitope mapping at JPT Peptide Technologies (Berlin, Germany).

P36 = target: T2, P36 (human)
T2 construct: linear 15-mer from the N-terminal coiled coil domain of human ANGPTL4
T2 peptide: EKQHLRIQHLQSQFG
Protocol: as §1

P19 = target: T3, P19 (human)
T3 construct: linear 15-mer from the N-terminal coiled coil domain of human ANGPTL4; printed with Ser where ANGPTL4 has Cys
T3 peptide: SQGTEGSTDLPLAPE
Protocol: as §1

P2 = target: T4, P2 (human)
T4 construct: linear 15-mer from the N-terminal coiled coil domain of human ANGPTL4
T4 peptide: QSKSPRFASWDEMNV
Protocol: as §1

P30 = target: T5, P30 (human)
T5 construct: linear 15-mer from the N-terminal coiled coil domain of human ANGPTL4
T5 peptide: NSRIQQLFHKVAQQQ
Protocol: as §1

P28 = target: T6, P28 (human)
T6 construct: linear 15-mer from the N-terminal coiled coil domain of human ANGPTL4
T6 peptide: TQLKAQNSRIQQLFH
Protocol: as §1

P27 = target: T7, P27 (human)
T7 construct: linear 15-mer from the N-terminal coiled coil domain of human ANGPTL4
T7 peptide: SLQTQLKAQNSRIQQ
Protocol: as §1

P31 = target: T8, P31 (human)
T8 construct: linear 15-mer from the N-terminal coiled coil domain of human ANGPTL4
T8 peptide: IQQLFHKVAQQQRHL
Protocol: as §1

P42 = target: T9, P42 (human)
T9 construct: linear 15-mer from the N-terminal coiled coil domain of human ANGPTL4
T9 peptide: HKHLDHEVAKPARRK
Protocol: as §1

P16 = target: T10, P16 (human)
T10 construct: linear 15-mer from the N-terminal coiled coil domain of human ANGPTL4; printed with Ser where ANGPTL4 has Cys
T10 peptide: RRLSASGSASQGTEG
Protocol: as §1

P32 = target: T11, P32 (human)
T11 construct: linear 15-mer from the N-terminal coiled coil domain of human ANGPTL4
T11 peptide: LFHKVAQQQRHLEKQ
Protocol: as §1

P39 = target: T12, P39 (human)
T12 construct: linear 15-mer from the N-terminal coiled coil domain of human ANGPTL4
T12 peptide: LQSQFGLLDHKHLDH
Protocol: as §1

P14 = target: T13, P14 (human)
T13 construct: linear 15-mer from the N-terminal coiled coil domain of human ANGPTL4; printed with Ser where ANGPTL4 has Cys
T13 peptide: QLSALERRLSASGSA
Protocol: as §1

P1 = target: T14, P1 (human)
T14 construct: linear 15-mer from the N-terminal coiled coil domain of human ANGPTL4
T14 peptide: GPVQSKSPRFASWDE
Protocol: as §1

P22 = target: T15, P22 (human)
T15 construct: linear 15-mer from the N-terminal coiled coil domain of human ANGPTL4
T15 peptide: LPLAPESRVDPEVLH
Protocol: as §1

P9 = target: T16, P9 (human)
T16 construct: linear 15-mer from the N-terminal coiled coil domain of human ANGPTL4
T16 peptide: QLGQGLREHAERTRS
Protocol: as §1

P11 = target: T17, P11 (human)
T17 construct: linear 15-mer from the N-terminal coiled coil domain of human ANGPTL4
T17 peptide: REHAERTRSQLSALE
Protocol: as §1

P20 = target: T18, P20 (human)
T18 construct: linear 15-mer from the N-terminal coiled coil domain of human ANGPTL4
T18 peptide: TEGSTDLPLAPESRV
Protocol: as §1

P38 = target: T19, P38 (human)
T19 construct: linear 15-mer from the N-terminal coiled coil domain of human ANGPTL4
T19 peptide: IQHLQSQFGLLDHKH
Protocol: as §1

P33 = target: T20, P33 (human)
T20 construct: linear 15-mer from the N-terminal coiled coil domain of human ANGPTL4
T20 peptide: KVAQQQRHLEKQHLR
Protocol: as §1

P6 = target: T21, P6 (human)
T21 construct: linear 15-mer from the N-terminal coiled coil domain of human ANGPTL4
T21 peptide: MNVLAHGLLQLGQGL
Protocol: as §1

P26 = target: T22, P26 (human)
T22 construct: linear 15-mer from the N-terminal coiled coil domain of human ANGPTL4
T22 peptide: VLHSLQTQLKAQNSR
Protocol: as §1

P29 = target: T23, P29 (human)
T23 construct: linear 15-mer from the N-terminal coiled coil domain of human ANGPTL4
T23 peptide: KAQNSRIQQLFHKVA
Protocol: as §1

P10 = target: T24, P10 (human)
T24 construct: linear 15-mer from the N-terminal coiled coil domain of human ANGPTL4
T24 peptide: QGLREHAERTRSQLS
Protocol: as §1

P18 = target: T25, P18 (human)
T25 construct: linear 15-mer from the N-terminal coiled coil domain of human ANGPTL4; printed with Ser where ANGPTL4 has Cys
T25 peptide: GSASQGTEGSTDLPL
Protocol: as §1

P7 = target: T26, P7 (human)
T26 construct: linear 15-mer from the N-terminal coiled coil domain of human ANGPTL4
T26 peptide: LAHGLLQLGQGLREH
Protocol: as §1

P24 = target: T27, P24 (human)
T27 construct: linear 15-mer from the N-terminal coiled coil domain of human ANGPTL4
T27 peptide: SRVDPEVLHSLQTQL
Protocol: as §1

P5 = target: T28, P5 (human)
T28 construct: linear 15-mer from the N-terminal coiled coil domain of human ANGPTL4
T28 peptide: WDEMNVLAHGLLQLG
Protocol: as §1

P13 = target: T29, P13 (human)
T29 construct: linear 15-mer from the N-terminal coiled coil domain of human ANGPTL4; printed with Ser where ANGPTL4 has Cys
T29 peptide: TRSQLSALERRLSAS
Protocol: as §1

P15 = target: T30, P15 (human)
T30 construct: linear 15-mer from the N-terminal coiled coil domain of human ANGPTL4; printed with Ser where ANGPTL4 has Cys
T30 peptide: ALERRLSASGSASQG
Protocol: as §1

P40 = target: T31, P40 (human)
T31 construct: linear 15-mer from the N-terminal coiled coil domain of human ANGPTL4
T31 peptide: QFGLLDHKHLDHEVA
Protocol: as §1

P41 = target: T32, P41 (human)
T32 construct: linear 15-mer from the N-terminal coiled coil domain of human ANGPTL4
T32 peptide: LLDHKHLDHEVAKPA
Protocol: as §1

P37 = target: T33, P37 (human)
T33 construct: linear 15-mer from the N-terminal coiled coil domain of human ANGPTL4
T33 peptide: HLRIQHLQSQFGLLD
Protocol: as §1

P23 = target: T34, P23 (human)
T34 construct: linear 15-mer from the N-terminal coiled coil domain of human ANGPTL4
T34 peptide: APESRVDPEVLHSLQ
Protocol: as §1

P17 = target: T35, P17 (human)
T35 construct: linear 15-mer from the N-terminal coiled coil domain of human ANGPTL4; printed with Ser where ANGPTL4 has Cys
T35 peptide: SASGSASQGTEGSTD
Protocol: as §1

P34 = target: T36, P34 (human)
T36 construct: linear 15-mer from the N-terminal coiled coil domain of human ANGPTL4
T36 peptide: QQQRHLEKQHLRIQH
Protocol: as §1

P35 = target: T37, P35 (human)
T37 construct: linear 15-mer from the N-terminal coiled coil domain of human ANGPTL4
T37 peptide: RHLEKQHLRIQHLQS
Protocol: as §1

P3 = target: T38, P3 (human)
T38 construct: linear 15-mer from the N-terminal coiled coil domain of human ANGPTL4
T38 peptide: SPRFASWDEMNVLAH
Protocol: as §1

P12 = target: T39, P12 (human)
T39 construct: linear 15-mer from the N-terminal coiled coil domain of human ANGPTL4
T39 peptide: AERTRSQLSALERRL
Protocol: as §1

P8 = target: T40, P8 (human)
T40 construct: linear 15-mer from the N-terminal coiled coil domain of human ANGPTL4
T40 peptide: GLLQLGQGLREHAER
Protocol: as §1

P21 = target: T41, P21 (human)
T41 construct: linear 15-mer from the N-terminal coiled coil domain of human ANGPTL4
T41 peptide: STDLPLAPESRVDPE
Protocol: as §1

Measured: binding result

B1: NEG276 (antibody, human IgG1, kappa)
heavy: not shown
light: EIVMTQSPATLSVSPGERATLSCKASQDIGSNLNWLQQKPGQAPRRLIYAVSNRGPGIPARFSGSRSGSEYTLTISSLQSEDFAVYYCLQYASSPWTFGQGTKVEIKRTVAAPSVFIFPPSDEQLKSGTASVVCLLNNFYPREAKVQWKVDNALQSGNSQESVTEQDSKDSTYSLSSTLTLSKADYEKHKVYACEVTHQGLSSPVTKSFNRGEC
notes: humanized, hIgG1/kappa, parental antibody 19C16
no binding: all assays above

B2: NEG318 (antibody, human IgG1, kappa, V domains shown)
VH: QVQLVQSGAEVKKPGASVKVSCKASGYTFTSFWITWVRQAPGQGLEWMGDIYPGGATTNYNEKLQGRVTLTVDTSTSTAYMELRSLRSDDTAVYYCARSPPQVGPFDYWGQGTLVTVSS
VL: DIQMTQSPSSLSASVGDRVTITCQASDYIYHWLAWYQQKPGKAPKLLISGASSLETGVPSRFSGSGSGKDYTFTISSLQPEDIATYYCQQYWSIPWTFGQGTKLEIKR
notes: humanized, hIgG1/kappa, parental antibody 14P18
no binding: all assays above
